Source: patent US8026342B2, “Compositions and methods for binding sphingosine-1-phosphate” (Lpath, Inc., priority 2006, dated 2011)

Tests used:
[1] = test system: COLO205 tumor; test: SC COLO205 colorectal tumor xenograft; assay type: in vivo, nude NCr (nu/nu) mice
Description: Nude mice were implanted sc near the right flank with one fragment per mouse of COLO 205 tumor from an in vivo passage. All treatments were initiated the day when 60 mice in each experiment established tumors ranging in size from approximately 100 to 200 mm3. […] Avastin was administered iv at a dosage of 40 mg/kg/dose on a q7d schedule, injected in a volume of 0.1 mL/20 g body weight. Paclitaxel (positive control), was administered iv at a dosage of 15 mg/kg/dose on a q1d×5 schedule, injected in a volume of 0.1 mL/10 g body weight.
Animals were observed daily for mortality. Tumor dimensions and body weights were collected twice weekly starting with the first day of treatment and including the day of study termination. When the median tumor in the vehicle-treated control group in each study reached approximately 4,000 mg, the study was terminated. Tumors from each animal were harvested, wet weights were recorded, tumors were processed for determination of microvascular densities (MVD) by CD-31 staining. Tumor weights (mg) were calculated using the equation for an ellipsoid sphere (l×w^2)/2=mm^3, where l and w refer to the larger and smaller dimensions collected at each measurement and assuming unit density (1 mm^3=1 mg).

[2] = Competitive ELISA for specificity: lipid competitors against anti-S1P mAb binding to coated S1P; conditions: for recognition of ceramide-1-phosphate (C1P): competitor C1P; for cross-reactivity to lysophosphatidic acid (LPA): competitor LPA
Description: As described in Example 1, below, bound antibody was detected by a second antibody, specific for the mouse or human IgG, conjugated with HRP. Chromogenic reactions were measured and reported as optical density (OD). The concentration of lipids used for the competition is indicated on the X-axis.
For cross reactivity, a competitive ELISA was performed as described above, except for the following alterations. The primary incubation consisted of the competitor (S1P, SPH, LPA, etc.) and a biotin-conjugated anti-S1P mAb. Biotinylation of the purified monoclonal antibody was performed using the EZ-Link Sulfo-NHS-Biotinylation kit (Pierce). […] The competitor was prepared as follows: lipid stocks were sonicated and dried under argon before reconstitution in DPBS/BSA [1 mg/ml fatty acid free BSA (Calbiochem) in DPBS (Invitrogen 14040-133)]. Purified anti-S1P mAb was diluted as necessary in PBS/0.5% Triton X-100. Competitor and antibody solutions were mixed together so to generate 3 parts competitor to 1 part antibody. A HRP-conjugated streptavidin secondary antibody (Jackson Immunoresearch) was used to generate signal.
i. Specificity. The humanized variants were tested for specificity in a competitive ELISA assay (FIG. 1) against S1P and several other biolipids.

[3] = Surface plasmon resonance (Biacore 2000) binding to S1P-coated chip; conditions: read-out: Binding Affinity (KD1)
Description: Each concentration was tested in duplicate. […] All data were collected at 25° C.

[4] = test system: Matrigel plug neovascularization; test: In vivo Matrigel plug assay for neovascularization (S1P, VEGF, bFGF); design: species or system mice
Description: Based on in vivo studies showing that S1P increased endothelial capillary growth into subcutaneously implanted Matrigel plugs, we speculated that SPHINGOMAB could reduce de novo BV formation in vivo. To investigate this, we employed the in vivo Matrigel Plug assay for neovascularization. In one set of experiments, Matrigel was supplemented with either 1 μM S1P, 0.5 μg/mL bFGF or 1 μg/mL VEGF and then […]. into mice (n=4). After 10 days, the mice were heparinized and injected with the fluorescent lectin, Isolectin B4-FITC, which binds to adhesion molecules expressed by vascular EC that form the growing BVs. The plugs were then excised, frozen in OCT, sectioned and viewed for FITC-stained BVs.
Sections of the plugs were then stained with hemotoxyln & eosin for evaluation of EC infiltration (FIG. 6B). The infiltration of ECs is a critical step in neo-vascularization. […] Cell infiltration is presumed to be ECs although we recognize that other cell types such as immune cells may also be stained.
Endogenous S1P from the blood and surrounding tissue could supply a wound with pro-angiogenic stimuli. The ability of SPHINGOMAB to reduce endogenous S1P in a wound was investigated. Optimally stimulated plugs (Matrigel supplemented with 0.5 μg/mL bFGF or […] VEGF) were implanted into mice. Mice received i.p. injections of 25 mg/kg SPHINGOMAB or saline every 48 hrs starting 1 day prior to Matrigel implantation. Each treatment group (Matrigel, Matrigel plus GF or Matrigel plus GF and administered SPHINGOMAB) consisted of a minimum of 6 mice. After 10 days, the mice were treated with heparin, injected with Isolectin B4-FITC, the plugs excised, embedded in OCT freezing medium and sectioned.

[5] = test system: ovarian cancer (OVCAR3) cells; test: S1P-induced IL-8 release from ovarian cancer cells; assay type: cell-based, human; conditions: 1 uM S1P
Description: After 22 hours of incubation, cell supernatants were collected and IL-8 secretion was measured by ELISA using an R&D Systems Quantikine human CXCL8/IL-8 kit.
In parallel, all the variants were tested for their effects on S1P-induced cytokine release from cancer cells.

[6] = 28-day toxicity and toxicokinetic study of LT1002 in mice; assay type: in vivo; conditions: 28 days
Description: The purpose of this study was to determine the toxicity and toxicokinetic profile of the murine anti-S1P monoclonal antibody, LT1002, following daily administration to C57/BL6 mice. The study was conducted by an independent contract laboratory organization, LAB Research, Inc. The LT1002 dosing solutions were administered for 28 consecutive days to animals in each group by bolus intravenous injection via the tail vein (Days 1-14) and then by bolus intraperitoneal injection (Days 15-28), over a period of approximately 0.5-1.0 minute. The treated group animals were dosed with LT1002 at 30, 75 or 200 mg/kg (n=6 per group) and compared to animals treated with PBS as a saline (vehicle) control group.
During the study, animals were monitored for effects on mortality, clinical condition, body weight and food consumption. Blood samples were collected from a subgroup of animals at necropsy for assessment of hematology, coagulation and clinical chemistry. Study animals were euthanized and subjected to a necropsy examination. Selected organs were weighed and a full list of tissues was retained. A histopathology examination was performed on the full tissue list from all control and high dose animals (200 mg/kg/day) and all abnormalities, while target organs were examined on lower dose groups. Blood samples were collected from the toxicokinetic animals (3 animals/sex/group/time point) on Days 1, 14 and 28 and the animals were euthanized and discarded without examination.

[7] = LT1009 25 mg/kg ip q3d, increased to 75 mg/kg on Day 21
[8] = LT1009 50 mg/kg ip q3d, Avastin 40 mg/kg iv q7d, Paclitaxel 15 mg/kg iv q1d×5
[9] = 25 mg/kg i.p. every 48 hrs, 10 days

Question: What does the source list for “LT1009: humanized anti-S1P IgG1/kappa mAb with Cys to Ala in HCDR2, light chain with 5 backmutations; SEQ ID NO: 31/32”?
Answer: % Reduction compared to Vehicle-Treated Mice [1, 7]: 20%; Final Tumor Weights [1, 7]: 2465.60 mg; % Reduction compared to Vehicle-Treated Mice [1, 8]: 32%; Final Tumor Weights [1, 8]: 2071.17 mg

B1: LT1002: murine anti-S1P monoclonal antibody, IgG1 kappa, from hybridoma clone 306D326.26 (antibody, listed as Mus sp., V domains shown)
VH: QAHLQQSDAELVKPGASVKISCKVSGFIFIDHTIHWMKQRPEQGLEWIGCISPRHDITKYNEMFRGKATLTADKSSTTAYIQVNSLTFEDSAVYFCARGGFYGSTIWFDFWGQGTTLTVS
VL: ETTVTQSPASLSMAIGEKVTIRCITTTDIDDDMNWFQQKPGEPPNLLISEGNILRPGVPSRFSSSGYGTDFLFTIENMLSEDVADYYCLQSDNLPFTFGSGTKLEIK
Question: What does the source list for B1?
Answer: Specificity (ELISA) [2]: High; recognition of ceramide-1-phosphate (C1P) [2]: no antibody binding was observed; recognition of ceramide-1-phosphate (C1P) ([2]; listed as SPHINGOMAB): did not recognize; cross-reactivity with dihydrosphingosine-1-phosphate (DH-S1P) ([2]; competitor DH-S1P): did cross react; recognition of dihydrosphingosine (DH-SPH) ([2]; competitor DH-SPH): did not recognize; cross-reactivity to lysophosphatidic acid (LPA) [2]: no binding; cross-reactivity to lysophosphatidic acid (LPA) ([2]; listed as SPHINGOMAB): no cross-reactivity; recognition of phosphatidyl ethanolamine (PE) ([2]; competitor PE): did not recognize; recognition of phosphatidyl serine (PS) ([2]; competitor PS): did not recognize; recognition of sphingomyelin (SM) ([2]; competitor SM): did not recognize; cross-reactivity with sphingosylphosphoryl choline (SPC) ([2]; competitor SPC): somewhat reduced; cross-reactivity to sphingosine (SPH) ([2]; competitor SPH): no cross-reactivity; Kd [3]: 0.026 nM; decrease in neovascularization of VEGF-containing plugs vs saline-treated animals [4, 9]: 5 fold; decrease in neovascularization of bFGF-containing plugs vs saline-treated animals [4, 9]: 8.5 fold; EC infiltration into S1P-containing Matrigel plugs ([4]; systemic, every 48 hrs): reduced amount of EC infiltration; reduction of S1P-induced IL-8 release [5]: reduced IL-8 release; average lymphocyte counts (+/-SD) ([6]; 30 mg/kg daily): 0.856+/−0.426 10^9 cells/L; average lymphocyte counts (+/-SD) ([6]; 75 mg/kg daily): 0.902+/−0.269 10^9 cells/L; average lymphocyte counts (+/-SD) ([6]; 200 mg/kg daily): 0.638+/−0.262 10^9 cells/L
